We go through two molecules from paper PMC3898472, “Molecular Basis for DNA Double-Strand Break Annealing and Primer Extension by an NHEJ DNA Polymerase”.

Series [1] has as its target Mt-PolDom (LigD polymerase domain) (UniProt P9WNV3 1-300). The series is described as follows: DNase I footprinting; 5 ug protein. The settings on record: protein: recombinant; label: 32P 5'-end label.
The next series has as its target Mt-PolDom (crystal) (UniProt P9WNV3 1-300). The series is described as follows: crystal structure 2.4 A; 10 mM MnCl2. As to conditions: protein: recombinant.

B1: 1-nt gapped FP-T/FP-P/FP-D, 5'-P (dsDNA)
DNA 1: GGCAGCTTGGATCTTGTCGAAAAACGTCAACATTCGCCTAGGCTTCGGCAATACTGAGGTCTTGTCGAAAAACGTCAACATTGCGTGGCC
DNA 2: GGCCACGCAATGTTGACGTTTTTCGACAAGACCTCAGTAT
DNA 3: GCCGAAGCCTAGGCGAATGTTGACGTTTTTCGACAAGATCCAAGCTGCC
modifications: 5'-phosphate on FP-D
Regarding B1, in series [1], the binding result is recorded as “binds”.

B2: annealed break T/D (dsDNA)
DNA 1: GCCGCAGATC
DNA 2: GCGGC
modifications: 5'-phosphate on D
For B2, the binding result with Mt-PolDom (crystal) is “binds”.
